Results on four molecules are retold here after publication PMC4314665, “Diversity of two-component systems: insights into the signal transduction mechanism by the Staphylococcus aureus two-component system GraSR” (F1000Research, 2014).

The target of series [1] is T1, GraR (Staphylococcus aureus Mu50) (UniProt Q932F1).
T1 sequence: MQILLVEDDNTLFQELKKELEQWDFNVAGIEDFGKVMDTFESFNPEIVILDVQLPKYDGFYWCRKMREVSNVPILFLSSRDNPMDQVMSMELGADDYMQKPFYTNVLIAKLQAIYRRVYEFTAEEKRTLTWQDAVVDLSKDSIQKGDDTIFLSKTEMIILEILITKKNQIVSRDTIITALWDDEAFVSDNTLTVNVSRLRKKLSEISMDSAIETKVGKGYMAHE
Description: DNase I footprinting. The following applies: 10 ng 32P-labelled promoter DNA, buffer, salt, pH and temperature not given (as described previously, ref 17).

Series [2] relates to GraR (Staphylococcus aureus Mu50). As to the kind of experiment: DNase I footprinting. The following applies: 10 ng 32P-labelled promoter DNA, buffer, salt, pH and temperature not given (as described previously, ref 17).
The subject of series [3] is GraR C (C-terminal DNA-binding domain) (Staphylococcus aureus Mu50). Description: DNase I footprinting. The following applies: 10 ng 32P-labelled promoter DNA, buffer, salt, pH and temperature not given (as described previously, ref 17).
In series [4] the target is T2, GST-BceS, cytoplasmic region of histidine kinase BceS (62-334) fused to GST (B. subtilis strain 168, UniProt O35044 62-334).
T2 construct: Histidine kinase BceS (334 amino acids), B. subtilis strain 168, cytoplasmic region, residues 62-334; Cloned in pGEX-4T-1; source: E. coli BL21(DE3), purified (glutathione-sepharose); not shown: GST, N-terminal, kept
T2 sequence: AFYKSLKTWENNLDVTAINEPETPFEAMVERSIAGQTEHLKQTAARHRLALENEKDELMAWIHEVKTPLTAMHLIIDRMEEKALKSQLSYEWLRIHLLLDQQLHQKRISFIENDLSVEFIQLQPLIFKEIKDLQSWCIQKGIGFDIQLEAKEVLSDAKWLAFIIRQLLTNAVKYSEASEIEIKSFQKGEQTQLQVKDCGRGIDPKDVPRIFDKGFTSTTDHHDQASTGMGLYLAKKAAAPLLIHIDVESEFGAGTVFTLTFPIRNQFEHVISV
As to the kind of experiment: pull-down; GST-fused bait immobilised on glutathione-sepharose resin in 1 x PBS; prey added at bait:prey ratios of about 1:1 to 1:2, 30 min at room temperature; five to seven washes; elution with 10 mM reduced glutathione in 50 mM Tris pH 8.0; SDS-PAGE. The following applies: both partners purified.

Series [5] concerns the molecule itself. Description: SDS-PAGE in the presence and absence of DTT; purified GraX on SDS-PAGE with and without dithiothreitol; data not shown.

“GGATCCTTTAGGTTTCATCTAAAATACTCCTTTAAACTGTAACCAAAAAACATATTACTCCACCTTTTAGTTACATATATATTATAATAGTAGCAAATGTTTTAAAATTTCAAAATACTGGAGGCTTTTTATGGCCCATATTATACGTAGAGTTAGTATCAAAGATGTAGAAAATTTCATTTCAATGAATTCCG (double strand) [graSR promoter]”: the binding entry in series [1] is listed as “no binding”.

Turning to PvraFG promoter, the figures for the dissociation constant (Kd) in series [2] and in series [3] were 800 nM and 2400 nM, respectively.

B1: BceR, response regulator of Bacillus subtilis (natural protein)
chain: MFKLLLIEDDESLFHEIKDRLTGWSYDVYGIQDFSQVLQEFAAVNPDCVIIDVQLPKFDGFHWCRLIRSRSNVPILFLSSRDHPADMVMSMQLGADDFIQKPFHFDVLIAKIQAMFRRVHHYNTEPSTIKTWCGAAVDAEQNLVSNDKGSVELTKNEMFILKQLIEQKNKIVSREELIRSLWNDERFVSDNTLTVNVNRLRKKLDALQLGAYIETKVGQGYIAKEEDKFYD
notes: Response regulator BceR, B. subtilis strain 168; the bceR gene amplified with primers from the start to the stop codon; no extra amino acids on either terminus; Cloned in pET26b(+), untagged; source: E. coli BL21(DE3), purified (DEAE-Sepharose, heparin-sepharose), up to 90% purity
B1: the binding result in series [4] is on record as “binds”.

B2: GraX, auxiliary protein (tagless) (natural protein)
chain: MKPKVLLAGGTGYIGKYLSEVIENDAELFAISKYPDNKKTDDVEMTWIQCDIFHYEQVVAAMNQIDIAVFFIDPTKNSAKITQSSARDLTLIAADNFGRAAAINQVKKVIYIPGSRYDNETIERLGAYGTPVETTNLVFKRSLVNVELQVSKYDDVRSTMKVVLPKGWTLKNVVNHFIAWMGYTKGTFVKTEKSHDQFKIYIKNKVRPLAVFKIEETADGIITLILLSGSLVKKYTVNQGKLEFRLIKESAVVYIHLYDYIPRLFWPIYYFIQAPMQKMMIHGFEVDCRIKDFQSRLKSGENMKYTK
notes: Auxiliary protein GraX, S. aureus strain Mu50, full length graX gene; Cloned in pET26b between NdeI and HindIII; Dimers seen by SDS-PAGE without DTT; also called untagged GraX; source: E. coli BL21(DE3), purified (SP-Sepharose cation exchange), to 90%
On to B2, for which, in series [5], the stoichiometry N (as a rule, a count of units in the complex or per binding partner) was determined as 2.
